From patent US8063014B2, “Self-assembly of peptide-amphiphile nanofibers under physiological conditions” (Northwestern University, priority 2002, dated 2011)
Non-standard residues stand in square brackets, D forms with d. No end group written: not given here. *: point of attachment. C16 alkyl = N-terminal C16 alkyl tail, CCCCCCCCCCCCCCCC*; pS = N[C@@H](COP(=O)(O)O)C(=O)O

Tests used:
[1] = Gelation on addition of metal salts (vial inversion); assay type: physicochemical; conditions: for gelation in the presence of KCl or NaCl / result of addition of 200 mM of KCl: 10 mM PA solution; for gelation in the presence of KCl or NaCl: salt concentrations up to 6M; for gelation properties, KCl / gelation properties, BaCl2 / gelation properties, CaCl2 / gelation properties, GdCl3 / gelation properties, ZnBr2 / gelation properties, MgCl2 / gelation properties, Cu(ClO4)2: PA 10 mg/ml (roughly 8 mM); for gelation properties, BaCl2 / gelation properties, CaCl2 / gelation properties, GdCl3 / gelation properties, ZnBr2 / gelation properties, MgCl2 / gelation properties, Cu(ClO4)2: salt 20 mM; for minimal amount of CA+2 and Gd+3 ions needed for the gelation: titration
Description: 100 μl of 10 mg/ml solution of peptide-amphiphile 20 was treated with 1M CaCl2 (adjusted to pH 6) drop wise in 1 μl increments. The solutions were shaken after each addition of the CaCl2 solution in order to obtain better diffusion of the divalent metal ions. Gelation was immediate. […] This calcium induced self-assembly may be particularly useful for medical applications where formation of a gel at physiological pH is desired. Trivalent metal cations can also be used for gelation.
To determine the relative number of metal ions necessary for gelation of the PAs, titration experiments were performed with PA molecules 26 and 27. […] (See Table 3, below). […] None of the negatively charged peptide-amphiphiles except molecule 32 formed gels in the presence of KCl at a ratio 1 molecule of PA per 20 molecules of KCl.
(§1) The synthesis of the peptide amphiphiles illustrates in examples 19-22 was performed using a standard synthesis scheme described elsewhere, herein, and as further available in the literature. Regarding gelation and with reference to the data of Table 3, […] volumes of PA solutions at concentrations 10 mg/ml (approximately 8 mM), pH 7.5 were mixed with 1 M solutions of NaCl, KCl, MgCl2, CaCl2, BaCl2, ZnBr2, […], Gd^+3 and Cu(ClO4)2. The amount of polyvalent ions added to the solutions varied from 0.5 to 5 metal ions per molecule of PA. For monovalent metal ions the maximum concentration of 6 M of metal ions per 10 mM of PA molecules has been tested. The solutions of the metal salts were added to the PA solutions by micropeppetors, the solutions were stirred briefly, in order to obtain better mixing of the components. The formation of self-supporting gels was examined by flipping of the vials up side down. In order to test the ability of cell compatible solutions to induce a gelation of PAs equal amounts 10 mM PA solutions were mixed with following formulations: MEM-α, DMEM containing 10% of fetal bovine serum, PBS without Ca^+2 and Mg^+2 and Hank's solution without Ca^+2 and Mg^+2 (Gibco). The ability of the above solutions to induce formation of the PAs was examined visually by flipping the vials up side down.

[2] = Gelation on mixing with cell culture media, PBS or Hank's solution; assay type: physicochemical; conditions: for gel formation on mixing with equal amounts of cell culture media: 10 mM PA solution in water; for gel formation on mixing with PBS and Hank's solutions depleted by Ca2+ and Mg2+: PA solution
From the text: One potential application of the peptide-amphiphile self-assembled gels is in the area of tissue engineering, in particular the formation of artificial extracellular matrices and cell delivery systems. The results of this example show PA self-assembly in situ and in vitro cell culture systems. Body fluids as well as cell culture media contain significant amounts inorganic cations. It was presumed that the peptide amphiphiles would form a gel upon mixing with these liquids.
as §1

[3] = Solubility, pH-dependent precipitation and gelation in water; assay type: physicochemical
Description: After synthesis (see, example 10), the PA of FIG. 1 (characterized by ^1H NMR and matrix-assisted laser desorption/ionization time-of-flight mass spectrometry (MALDI-TOF MS): matrix ion [M−H]^−1=1333) was treated with dithiothreitol (DTT) at a pH of 8 to reduce all cysteine residues to free thiols. […] However, upon acidification of the solution below pH 4 the material rapidly becomes insoluble. Solutions more concentrated than 2.5 mg/ml form birefringent gels in water that are self-supporting upon inversion of the container. […] Negatives were digitized in the Umax PowerLook scanner with resolution 1200 dpi. The average thickness of the PA fibers was determined by two different procedures. First the Fourier transform of the images and following measurements of the distances between the peaks were performed in the NIH Image […] program. The second approach applied was averaging technique based on the cross-correlation method, widely used in single particle reconstruction using the EMAN […] program. For each data set 1200-1300 individual boxes were selected.
Several PAs with basic amino acids that can self-assemble at alkaline pH and also mixed systems, in which oppositely charged PAs self-assemble at neutral pH, were prepared. For this purpose PA compounds 22-25 were prepared by standard solid phase peptide synthesis followed by alkylation with the C16 fatty acid, palmitic acid. See Table 2, FIG. 10b (PA 22) and FIGS. 10c-e (PAs 23-25). The peptides thus prepared were characterized by electrospray mass spectroscopy and found to correspond to their respective expected masses.
Solutions of each compound of example 6 were prepared at a concentration of 0.1 mg/m1 at neutral pH.

[4] = Mineralization of PA nanofibers with CaCl2 and Na2HPO4 on TEM grid
Description: To investigate the mineralization properties of PA nanofibers of this invention, the material was assembled and mineralized directly on a holey carbon coated TEM grid—to allow study of the dynamics of the mineralization process while minimizing artifacts of TEM sample preparation. To prepare samples, a drop of aqueous PA (1 mg/ml) was mounted on the holey grid and the self-assembly of the PA was induced in an atmosphere of HCl vapor. The grids were immersed in aqueous iodine to oxidize the cysteine thiol groups to disulfides. After rinsing with distilled water, the PA coated grids were treated with 5 μl of 10 mM CaCl2 on one side and 5 μl of 5 mM Na2HPO4 on the other side. The two solutions are able to mix only by passing through the holes in the carbon support.
In a second control, a PA was prepared in which phosphoserine was replaced by serine and treated as above with calcium and phosphate.

[5] = KCl concentration up to 6M (molecules 26 and 27)

Substance	gelation properties, BaCl2 [1]	gelation properties, CaCl2 [1]	gelation properties, GdCl3 [1]	gelation properties, ZnBr2 [1]	gelation properties, KCl ([1]; KCl 200 mM, pH 7.5)	also measured
26 (CCCCGGG[pS]RGD-OH; not fully specified (N-terminus); cysteine pairing not given here) [compound 26]	gel	gel	gel	gel	–	gelation in the presence of KCl or NaCl [1]: did not gel; gelation properties, KCl [1, 5]: Liquid; minimal amount of CA+2 and Gd+3 ions needed for the gelation [1]: about equal to the number of PA molecules in solution
32 (CCCCGGGEIKVAV-OH; not fully specified (N-terminus); cysteine pairing not given here) [compound 32]	–	gel	gel	gel	gel	result of addition of 200 mM of KCl [1]: formation of a self-supporting gel; gel formation in the presence of KCl ([1]; ratio 1 molecule of PA per 20 molecules of KCl): formed gels; gelation properties, MgCl2 [1]: gel
33 ({C16 alkyl}-CCCCGGGKIKVAV-NH2; cysteine pairing not given here) [compound 33]	–	–	–	–	–	gel formation on mixing with equal amounts of cell culture media [2]: gel formation was observed; result of addition of 200 mM of KCl [1]: formation of a self-supporting gel
30 ({C16 alkyl}-AAAGGEQS-OH; SMILES CCCCCCCCCCCCCCCCN[C@@H](C)C(=O)N[C@@H](C)C(=O)N[C@@H](C)C(=O)NCC(=O)NCC(=O)N[C@@H](CCC(=O)O)C(=O)N[C@@H](CCC(N)=O)C(=O)N[C@@H](CO)C(=O)O) [compound 30]	gel	gel	gel	gel	Liquid	gelation properties, Cu(ClO4)2 [1]: gel; gelation properties, MgCl2 [1]: gel
28 (AAAAGGG[pS]KGE-OH; not fully specified (N-terminus)) [compound 28]	gel	gel	gel	gel	Liquid	gel formation on mixing with equal amounts of cell culture media [2]: gel formation was observed; gel formation on mixing with PBS and Hank's solutions depleted by Ca2+ and Mg2+ [2]: no gel formation was observed
21 ({C16 alkyl}-CCCCGGGEIKVAV-OH; cysteine pairing not given here) [compound 21]	–	–	–	–	–	appearance of the solution ([3]; 5 mg/ml in water at pH 7): slightly cloudy
31 ({C16 alkyl}-AAAAGGGERGDS-OH; SMILES CCCCCCCCCCCCCCCCN[C@@H](C)C(=O)N[C@@H](C)C(=O)N[C@@H](C)C(=O)N[C@@H](C)C(=O)NCC(=O)NCC(=O)NCC(=O)N[C@@H](CCC(=O)O)C(=O)N[C@@H](CCCNC(=N)N)C(=O)NCC(=O)N[C@@H](CC(=O)O)C(=O)N[C@@H](CO)C(=O)O) [compound 31]	–	–	gel	gel	liquid	–
22 ({C16 alkyl}-CCCCGGGKIKVAV-NH2; cysteine pairing not given here) [compound 22]	–	–	–	–	–	appearance of the solution ([3]; 5 mg/ml in water at pH 7): slightly cloudy; appearance of the solution ([3]; 10 mg/ml, neutral pH): cloudy and viscous
Alkyl-C4G3SRGD-COOH ({C16 alkyl}-CCCCGGGSRGD-OH; cysteine pairing not given here) [PA 29]	–	–	–	–	–	mineral observed on the fibers by TEM ([4]; 20 minutes of incubation with calcium and phosphate): only amorphous mineral deposit; mineral observed on the fibers by TEM ([4]; 30 minutes of incubation with calcium and phosphate): only amorphous mineral
29 (CCCCGGGSRGD-OH; not fully specified (N-terminus); cysteine pairing not given here) [compound 29]	gel	gel	gel	gel	Liquid	–
24 ({C16 alkyl}-AAAAGGGKYIGSR-NH2; SMILES CCCCCCCCCCCCCCCCN[C@@H](C)C(=O)N[C@@H](C)C(=O)N[C@@H](C)C(=O)N[C@@H](C)C(=O)NCC(=O)NCC(=O)NCC(=O)N[C@@H](CCCCN)C(=O)N[C@@H](Cc1ccc(O)cc1)C(=O)N[C@H](C(=O)NCC(=O)N[C@@H](CO)C(=O)N[C@@H](CCCNC(=N)N)C(N)=O)[C@@H](C)CC) [compound 24]	–	–	–	–	–	pH above which a precipitate forms on slow addition of base ([3]; 0.1 mg/ml solution): above 9.5 pH; state at neutral pH ([3]; 0.1 mg/ml solution): completely dissolved; appearance of the solution ([3]; 10 mg/ml, neutral pH): cloudy and viscous
27 (AAAAGGG[pS]RGD-OH; not fully specified (N-terminus); printed as Alkyl-A4G3S(P)RGD-COOH) [compound 27]	gel	gel	gel	gel	–	gel formation on mixing with equal amounts of cell culture media [2]: gel formation was observed; gel formation on mixing with PBS and Hank's solutions depleted by Ca2+ and Mg2+ [2]: no gel formation was observed; gelation in the presence of KCl or NaCl [1]: did not gel; gelation properties, KCl [1, 5]: Liquid; gelation properties, Cu(ClO4)2 [1]: gel; minimal amount of CA+2 and Gd+3 ions needed for the gelation [1]: about equal to the number of PA molecules in solution
20 ({C16 alkyl}-CCCCGGGSRGD-OH; cysteine pairing not given here) [compound 20]	–	–	–	–	–	gelation on dropwise addition of CaCl2 ([1]; 100 μl of 10 mg/ml PA, 1M CaCl2 (pH 6) in 1 μl increments): immediate
25 ({C16 alkyl}-AAAAGGGEIKVAV-OH; SMILES CCCCCCCCCCCCCCCCN[C@@H](C)C(=O)N[C@@H](C)C(=O)N[C@@H](C)C(=O)N[C@@H](C)C(=O)NCC(=O)NCC(=O)NCC(=O)N[C@@H](CCC(=O)O)C(=O)N[C@H](C(=O)N[C@@H](CCCCN)C(=O)N[C@H](C(=O)N[C@@H](C)C(=O)N[C@H](C(=O)O)C(C)C)C(C)C)[C@@H](C)CC) [compound 25]	–	–	–	–	–	pH below which the PA precipitates on slow acidification (HCl) ([3]; 0.1 mg/ml solution): < 4.5 pH; state at neutral pH ([3]; 0.1 mg/ml solution): completely dissolved; state on increasing the solution's pH (KOH) ([3]; 0.1 mg/ml solution): completely dissolved
